Measured values published in PMC11413795, “Milk-derived extracellular vesicles enable gut-to-tumor oral delivery of tumor-activated doxorubicin prodrugs” (Theranostics, 2024).
Peptide text beside a SMILES is read from it. * marks the point of attachment. Doxorubicin(3'-N) = COc1cccc2c1C(=O)c1c(O)c3c(c(O)c1C2=O)C[C@@](O)(C(=O)CO)C[C@@H]3O[C@H]1C[C@H](N*)[C@H](O)[C@H](C)O1

Columns and labels:
[1] = Systemic toxicity after repeated oral administration; format: in vivo, BALB/c mice; settings: 10 mg/kg FDX or equivalent, three-day intervals, n = 5
Experimental: To evaluate the therapeutic efficacy of FDX@mEVs, all controls and FDX@mEVs (PBS, mEVs, FDX, and FDX@mEVs; an equivalent dose of 10 mg/kg of FDX dispersed in 100 μL of PBS) were orally administered to CT26 tumor-bearing mice when the average tumor size reached approximately 50 - 70 mm^3. The CT26 tumor-bearing mice were modeled in the same manner as the previous method by inoculating 1.5 x 10^6 cells into the left flank of 7-week-old BALB/c mice (BALB/cAnNCrlOri). The six-repeated administration was conducted every three days, and tumor sizes and body weights were measured every two days. All subjects were sacrificed three days after the last administration, and blood, major organs, and tumor tissues were collected for the following analysis.
Systemic toxicity of FDX@mEVs was assessed by analyzing hematological parameters and histological assay of major organs. To assess liver damage by FDX@mEVs, AST, and ALT levels were analyzed. In addition, BUN and creatinine levels were also evaluated to confirm renal toxicity. Subsequently, all major organs were used for H&E staining to verify the histological damage of FDX@mEVs. H&E staining was performed according to the same protocol used in our previous study. Briefly, all sections were incubated in Hematoxylin solution for 5 min at RT. All incubated tissue sections were washed using tap water for 3 min. […]

[2] = Biodistribution after oral administration, NIRF imaging of GI tract; design: species or system BALB/c mice; settings: mouse
Experimental: All animal experiments were performed following the International Guide for the Care and Use of Laboratory Animals and were approved by the Korea Institute of Science and Technology. 7-week-old BALB/c mice (n = 3 per each time point) were used to monitor the in vivo biodistribution of mEVs. […] Fluorescence signals in the GI tract were monitored by NIRF imaging. Following the assessment of GI tract distribution, all mice were anesthetized using 2.5% isoflurane gas and dissected to extract their major organs (liver, lung, spleen, heart, and kidney) along with the GI tract, and blood for PK analysis. PK analysis was performed by measuring the fluorescence signal of FDX and mEVs present in the blood at each time point (20 min, 40 min, 1 h, 3 h, 6 h, and 24 h).

SMILES: COc1cccc2c1C(=O)c1c(O)c3c(c(O)c1C2=O)C[C@@](O)(C(=O)CO)C[C@@H]3O[C@H]1C[C@H](NC(=O)CNC(=O)[C@H](CCCNC(=N)N)NC(=O)[C@H](CCCNC(=N)N)NC(=O)[C@H](Cc2ccccc2)NC(C)=O)[C@H](O)[C@H](C)O1 [FDX, FRRG-DOX] (Ac-FRRG-{Doxorubicin(3'-N)})
- body weight during repeated oral administration compared to PBS group [1]: no significant changes
- in vivo clearance time after oral administration [2]: ≤ 3 h
